Reference: patent US20210196796A1 (SYNTHEKINE, published 2021)
Numbering of substitutions follows the chain as printed. Numbers in names are those of the source.

T1: orthogonal hCD122 receptor (hoRb), hCD122 with H133D and Y134F (human, UniProt P14784 27-550)
T1 sequence: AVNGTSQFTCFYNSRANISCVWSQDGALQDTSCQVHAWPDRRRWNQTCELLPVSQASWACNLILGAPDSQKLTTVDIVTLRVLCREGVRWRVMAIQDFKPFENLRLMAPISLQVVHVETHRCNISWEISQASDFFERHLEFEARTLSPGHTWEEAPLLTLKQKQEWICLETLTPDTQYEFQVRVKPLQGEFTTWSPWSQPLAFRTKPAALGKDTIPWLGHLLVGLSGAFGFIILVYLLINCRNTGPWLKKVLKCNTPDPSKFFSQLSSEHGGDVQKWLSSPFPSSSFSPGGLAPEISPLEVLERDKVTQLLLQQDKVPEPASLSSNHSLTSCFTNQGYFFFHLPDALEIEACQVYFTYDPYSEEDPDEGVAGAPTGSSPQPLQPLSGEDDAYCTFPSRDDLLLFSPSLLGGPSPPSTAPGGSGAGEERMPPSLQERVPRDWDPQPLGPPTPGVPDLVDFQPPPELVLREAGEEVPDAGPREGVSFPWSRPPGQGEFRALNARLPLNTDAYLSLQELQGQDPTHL

B1: SQVSKA (ligand)
chain: APTSSSTKKTQLQLSQLLVSLKAILNGINNYKNPKLTRMLTFKFYMPKKATELKHLQCLEEELKPLEEVLNLAQSKNFHLRPRDLISNINVIVLELKGSETTFMCEYADETATIVEFLNRWITFCQSIISTLT
B2: T3K, SQVLKA (ligand)
chain: B1 chain with T3K, S20L
B3: T3E, SQVLKA (ligand)
chain: B1 chain with T3E, S20L
B4: T3D, SQVLKA (ligand)
chain: B1 chain with T3D, S20L
B5: T3G, SQVLKA (ligand)
chain: B1 chain with T3G, S20L
B6: T3Q, SQVLKA (ligand)
chain: B1 chain with T3Q, S20L
B7: T3N, SQVLKA (ligand)
chain: B1 chain with T3N, S20L
B8: T3P, SQVLKA (ligand)
chain: B1 chain with T3P, S20L
B9: T3R, SQVLKA (ligand)
chain: B1 chain with T3R, S20L

target: T1, orthogonal hCD122 receptor (hoRb), …; experiment: cell-based or functional assay

3F8 Ortho Proliferation Signal 1:2 | 3F8 Ortho Proliferation Signal 1:10 | 3F8 Ortho Proliferation Signal 1:50 | Relative Proliferation Fold Change 3F8 1:2 | Relative Proliferation Fold Change 3F8 1:10 | Relative Proliferation Fold Change 3F8 1:50 | Binder
47300 cts/min | 56600 cts/min | 33100 cts/min | 0.81 fold | 1.23 fold | 1.29 fold | B1
28900 cts/min | 15100 cts/min | 7150 cts/min | 50.9 fold | 7.35 fold | 9.24 fold | B2
36100 cts/min | 36200 cts/min | 18900 cts/min | 20.8 fold | 45.5 fold | 16 fold | B3
33400 cts/min | 35000 cts/min | 13400 cts/min | 35.1 fold | 18.6 fold | 19 fold | B4
31800 cts/min | 24400 cts/min | 9460 cts/min | 20.4 fold | 19.4 fold | 7.14 fold | B5
39200 cts/min | 32200 cts/min | 14200 cts/min | 68.3 fold | 28.2 fold | 17.2 fold | B6
34200 cts/min | 27200 cts/min | 9790 cts/min | 2.07 fold | 2.99 fold | 4.1 fold | B7
36500 cts/min | 39700 cts/min | 19000 cts/min | 33.9 fold | 42.8 fold | 38.5 fold | B8
28900 cts/min | 16800 cts/min | 5980 cts/min | 8.43 fold | 13.3 fold | 5.3 fold | B9

target: T1, orthogonal hCD122 receptor (hoRb), …; experiment: cell-based or functional assay; remark: another data set of the same source

NKL Ortho Proliferation Signal 1:2 | NKL Ortho Proliferation Signal 1:10 | NKL Ortho Proliferation Signal 1:50 | Relative Proliferation Fold Change NKL 1:2 | Relative Proliferation Fold Change NKL 1:10 | Relative Proliferation Fold Change NKL 1:50 | Binder
59500 | 73700 | 45000 | 1 fold | 1.73 fold | 1.91 fold | B1
42900 | 35500 | 18400 | 3.47 fold | 2.47 fold | 1.38 fold | B2
68600 | 75000 | 37400 | 3.97 fold | 3.86 fold | 2.06 fold | B3
49800 | 53900 | 27900 | 4.09 fold | 4.03 fold | 2.34 fold | B4
58900 | 66900 | 32200 | 3.94 fold | 3.76 fold | 1.92 fold | B5
65300 | 73700 | 34800 | 4.19 fold | 4.03 fold | 1.93 fold | B6
62400 | 65700 | 31400 | 3.87 fold | 3.32 fold | 1.77 fold | B7
55400 | 56900 | 32700 | 6.03 fold | 4.91 fold | 2.9 fold | B8
58400 | 40700 | 19300 | 4.15 fold | 2.9 fold | 1.45 fold | B9
